Source: patent US20200392247A1 (MCMASTER UNIVERSITY, published 2020)

B1: Tri-TAC variant that lacked the cytosolic domain that interacts with Lck (other)
chain: MSRGSDLGKKLLEAARAGQDDEVRILMANGADVNAKDEYGLTPLYLATAHGHLEIVEVLLKNGADVNAVDAIGFTPLHLAAFIGHLEIAEVLLKHGADVNAQDKFGKTAFDISIGNGNEDLAEILQKLNEQKLISEEDLNPGGGGGSGGGGSGGGGSGGGGSGSMDIQMTQTTSSLSASLGDRVTISCRASQDIRNYLNWYQQKPDGTVKLLIYYTSRLHSGVPSKFSGSGSGTDYSLTISNLEQEDIATYFCQQGNTLPWTFAGGTKLEIKGGGGSGGGGSGGGGSGGGGSEVQLQQSGPELVKPGASMKISCKASGYSFTGYTMNWVKQSHGKNLEWMGLINPYKGVSTYNQKFKDKATLTVDKSSSTAYMELLSLTSEDSAVYYCARSGYYGDSDWYFDVWGQGTTLTVFSTSGGGGSLESGQVLLESNIKVLPTWSTPVQPMALIVLGGVAGLLLFIGLGIFF
notes: Expressed in 293TM cells; also called cytosolic deletion; TAC without cytosolic domain
B2: Anti-HER-2 DARPin CAR (CD28-based CAR) (other)
chain: MSRGSDLGKKLLEAARAGQDDEVRILMANGADVNAKDEYGLTPLYLATAHGHLEIVEVLLKNGADVNAVDAIGFTPLHLAAFIGHLEIAEVLLKHGADVNAQDKFGKTAFDISIGNGNEDLAEILQKLN
notes: Expressed on the surface of engineered human T cells; also called conventional CAR with the same DARPin; anti-HER-2 DARPin CD28-based CAR; not shown: rest of the CD28-based CAR (hinge, transmembrane and signalling domains)
B3: Anti-HER-2 DARPin Tri-TAC (full-length Trifunctional T cell-antigen coupler, configuration 1) (other)
chain: MSRGSDLGKKLLEAARAGQDDEVRILMANGADVNAKDEYGLTPLYLATAHGHLEIVEVLLKNGADVNAVDAIGFTPLHLAAFIGHLEIAEVLLKHGADVNAQDKFGKTAFDISIGNGNEDLAEILQKLNEQKLISEEDLNPGGGGGSGGGGSGGGGSGGGGSGSMDIQMTQTTSSLSASLGDRVTISCRASQDIRNYLNWYQQKPDGTVKLLIYYTSRLHSGVPSKFSGSGSGTDYSLTISNLEQEDIATYFCQQGNTLPWTFAGGTKLEIKGGGGSGGGGSGGGGSGGGGSEVQLQQSGPELVKPGASMKISCKASGYSFTGYTMNWVKQSHGKNLEWMGLINPYKGVSTYNQKFKDKATLTVDKSSSTAYMELLSLTSEDSAVYYCARSGYYGDSDWYFDVWGQGTTLTVFSTSGGGGSLESGQVLLESNIKVLPTWSTPVQPMALIVLGGVAGLLLFIGLGIFFCVRCRHRRRQAERMSQIKRLLSEKKTCQCPHRFQKTCSPI
notes: also called N-Darpin Tri TAC; full length Tri-TAC

Experiments:
[1] = molecular target: β-Actin (UniProt P60709 1-375); assay: immunoprecipitation of the Tri-TAC with recombinant HER-2 beads from 293TM cells, Western blot
Description: (§1) FIG. 5 illustrates Lck interaction with the Tri-TAC. In FIG. 5A, 293TM cells were engineered to express Lck in combination with either the full-length Tri-TAC or a Tri-TAC variant that lacked the cytosolic domain that interacts with Lck. The Tri-TAC receptors were immunoprecipitated with beads carrying recombinant HER-2 protein. The precipitated Tri-TAC was measured by Western blot with an antibody against the myc tag. Co-precipitated Lck was identified by Western blot with an antibody against Lck. β-Actin was not pulled down and only detected in the supernatant (S). Both full length Tri-TAC and the Tri-TAC that lacked the cytosolic domain were efficiently pulled down and detected in the bound fraction (B). […] Greater amounts of Lck were co-immunopreciptated with the full-length Tri-TAC relative to the controls. […] Signal was corrected relative to the negative control.

[2] = molecular target: T1, Lck (UniProt P06239 1-509, limits assumed); assay: co-immunoprecipitation with recombinant HER-2 beads from 293TM cells, Western blot for Lck
T1 construct: also called protein kinase Lck
Description: as §1

[3] = molecular target: T2, recombinant HER-2 (UniProt P04626 23-652, limits assumed); assay: flow cytometry of engineered T cells stained with recombinant HER-2
T2 construct: also called recombinant HER-2 protein; HER-2 (erbB-2)
Description: The chimeric receptors were detected by incubation with recombinant HER-2. The Anti-HER-2 DARPin Tri-TAC was expressed well on the surface of the engineered T cells. However, its maximal surface expression was lower compared to the Anti-HER-2 DARPin CAR construct. […] T cells were activated with anti-CD3/anti-CD28 Dynabeads and engineered with lentiviruses encoding the Tri-TAC, CAR or no receptor (control). After 2 weeks, the CAR and control cultures had grown to similar numbers while the Tri-TAC cultures grew slightly more slowly.

T1 sequence (P06239 whole entry): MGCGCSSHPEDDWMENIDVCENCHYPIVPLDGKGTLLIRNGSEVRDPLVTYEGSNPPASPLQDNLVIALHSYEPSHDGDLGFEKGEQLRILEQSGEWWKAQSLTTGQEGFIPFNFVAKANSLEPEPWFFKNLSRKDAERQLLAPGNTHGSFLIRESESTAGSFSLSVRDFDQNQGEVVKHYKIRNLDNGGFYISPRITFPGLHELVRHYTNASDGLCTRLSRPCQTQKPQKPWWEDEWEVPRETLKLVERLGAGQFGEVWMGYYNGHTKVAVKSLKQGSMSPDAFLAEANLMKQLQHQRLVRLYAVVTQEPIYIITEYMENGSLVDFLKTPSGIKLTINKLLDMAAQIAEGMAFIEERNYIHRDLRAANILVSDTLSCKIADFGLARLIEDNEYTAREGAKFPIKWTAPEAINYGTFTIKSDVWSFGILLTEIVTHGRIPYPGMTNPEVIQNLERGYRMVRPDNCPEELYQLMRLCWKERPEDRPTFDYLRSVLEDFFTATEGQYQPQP

Row | Binder | binding result [1] | binding result [2] | binding result [3]
1 | B1 | no binding | no binding | –
2 | B2 | – | – | binds
3 | B3 | no binding | – | binds
